Experimental data reported in publication PMC4564341.

Tests used:
[1] = molecular target: CREB pKID αB peptide pKID αB helix (UniProt P16220); settings: cited from earlier work
[2] = molecular target: Mouse CBP KIX (residues 586-683) (mouse) (UniProt P45481); experiment: NMR titration
[3] = molecular target: Mouse CBP KIX (residues 586-683) (mouse) (UniProt P45481); experiment: ITC

Row | Substance | Kd [1] | Kd [2] | Kd2 (site 2, two-site model) [3]
1 | CBP KIX (from UniProt P45481) | 80 µM |  | 
2 | CRTC1-MAML2 TAD1 polypeptide spanning residues 150-190 |  | 21 µM | 370 µM
